Experimental data published in patent US11795195B2, “Antibody-drug conjugates including hemiasterlin derivative” (Sumitomo Pharma Co., Ltd., priority 2017, dated 2023).

Tested on: HL-60
Assay: Cellular Toxicity Test (3) for ADCs
Assay type: cell-based
Conditions: HL-60, treatment with 333 nM of ADC
Protocol: In accordance with the method described in Test Example 3 or Test Example 7, cellular toxicities of Example ADCs were measured using the cell types shown in the following table. As an indicator for the cellular toxicity, IC50 or the cell survival rate upon the treatment with 333 nM of ADC was measured. However, for ADC 51, the cell survival rate upon the treatment with 26.6 nM of ADC51 was measured.

B1: ADC54: ADC of Vadastuximab and M4, average DAR 5.3 (conjugate, chains of the INN, looked up)
VH: QVQLVQSGAEVKKPGASVKVSCKASGYTFTNYDINWVRQAPGQGLEWIGWIYPGDGSTKYNEKFKAKATLTADTSTSTAYMELRSLRSDDTAVYYCASGYEDAMDYWGQGTTVTVSS
VL: DIQMTQSPSSLSASVGDRVTINCKASQDINSYLSWFQQKPGKAPKTLIYRANRLVDGVPSRFSGSGSGQDYTLTISSLQPEDFATYYCLQYDEFPLTFGGGTKVEIK
modifications: drug-linker M4, DAR 5.3
- Cell survival rate (%): 68%
